This is an account of results in the RNAGym collection of RNA variant scans (doi:10.1093/molbev/msab373).

To fix the notation:
B1: Azoarcus group I ribozyme (parent)
chain: GUGCCUUGCGCCGGGAAACCACGCAAGGGAUGGUGUCAAAUUCGGCGAAACCUAAGCGCCCGCCCGGGCGUAUGGCAACGCCGAGCCAAGCUUCGGCGCCUGCGCCGAUGAAGGUGUAGAGACUAGACGGCACCCACCUAAGGCAAACGCUAUGGUGAAGGCAUAGUCCAGGGAGUGGCGAAAGUCACACAAACCGG

In this data set the parent is B1. Nature of the data set: reverse-splicing fitness (ratio to wild type); higher = more active; in vitro selection; Mg2+ level not given. The method, boiled down: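 An in vitro group I ribozyme library with randomized positions was T7-transcribed and gel-purified. In triplicate, 10 pmol RNA in EPPS pH 7.5 was reacted with 50 pmoles of a 30-nt RNA substrate for 1 h at 37 °C across several added MgCl2 levels (1–48 mM), then stopped with EDTA. Products were reverse transcribed from a substrate-complementary primer, PCR-amplified and sequenced (HiSeq 4000). Fitness is a variant's read proportion after selection over that before, normalised to wild type.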
For C82U A111C A120G A145U C150A C169G, the reverse-splicing fitness was found to be 0.00681. The figure for C82U A111C A120G A145U C150A C169U is 0.006; for C82U A111C A120G A145U C150A C169A it is 0.00826; for C82U A111C A120G A145G C150A C169A U176A it is 0.0155. For C82U A111C A120G A145G C150A C169A U176G, the reverse-splicing fitness stood at 0.00573. The value for C82U A111C A120G A145G C150A C169A U176C was 0.0218; that for C82U A111C A120G A145U C150U C169G was 0.00846; that for C82U A111C A120G A145U C150U C169A was 0.00896.

Consider C82U A111C A120G A145U C150U C169U, for which the reverse-splicing fitness worked out at 0.00803. The value for C82U A111C A120G A145G C169G U176G was 0.00408; that for C82U A111C A120G A145G C169G U176C was 0.028; that for C82U A111C A120G A145G C169G U176A was 0.019.

With C82U A111C A120G A145C U176A, the reverse-splicing fitness is 0.0119. The value for C82U A111C A120G A145C U176G was 0.00386. As for C82U A111C A120G A145C U176C, the reverse-splicing fitness worked out at 0.0128. The figure for C82U A111C A120G C150A is 0.00908; for C82U A111C A120G A145U C169U it is 0.00765; for C82U A111C A120G A145U C169A it is 0.00767. The figure for C82U A111C A120G A145U C169G is 0.00905; for C82U A111C A120G A145G C150U C169G U176C it is 0.0159.

For the variant C82U A111C A120G A145G C150U C169G U176G, the reverse-splicing fitness was 0.00467.

Take C82U A111C A120G A145G C150U C169G U176A: the reverse-splicing fitness was determined as 0.0112. The figure for C82U A111C A120G A145G C169U U176A is 0.0161; for C82U A111C A120G A145G C169U U176G it is 0.00411; for C82U A111C A120G A145G C169U U176C it is 0.0125. On to C82U A111C A120G A145C C169U U176G, for which the reverse-splicing fitness worked out at 0.00308. In the case of C82U A111C A120G A145C C169U U176A, the reverse-splicing fitness turned out to be 0.0137. The figure for C82U A111C A120G A145C C169U U176C is 0.00886; for C82U A111C A120G A145G C150G C169U U176C it is 0.0104; for C82U A111C A120G A145G C150G C169U U176A it is 0.0116. In the case of C82U A111C A120G A145G C150G C169U U176G, the reverse-splicing fitness amounted to 0.00643. Consider C82U A111C A120G A145G C150U U176A, for which the reverse-splicing fitness came out at 0.00886. Turning to C82U A111C A120G A145G C150U U176C, the reverse-splicing fitness was 0.0169. Regarding C82U A111C A120G A145G C150U U176G, the reverse-splicing fitness was determined as 0.00547. Regarding C82U A111C A120G A145G C150G U176C, the reverse-splicing fitness stood at 0.0103. The figure for C82U A111C A120G A145G C150G U176A is 0.00693. Consider C82U A111C A120G A145G C150G U176G, for which the reverse-splicing fitness came to 0.00607. With C82U A111C A120G A145U C150G C169U U176G, the reverse-splicing fitness was 0.00419.

For C82U A111C A120G A145U C150G C169U U176A, the reverse-splicing fitness came to 0.00881. The value for C82U A111C A120G A145U C150G C169U U176C was 0.0106; that for C82U A111C A120G A145U C150U C169U U176G was 0.00431. The value for C82U A111C A120G A145U C150U C169U U176A was 0.0158; that for C82U A111C A120G A145U C150U C169U U176C was 0.0107; that for C82U A111C A120G A145C C150G C169U U176A was 0.00949. The figure for C82U A111C A120G A145C C150G C169U U176C is 0.00897; for C82U A111C A120G A145C C150G C169U U176G it is 0.0039; for C82U A111C A120G A145G C150G C169U it is 0.00832. For the variant C82U A111C A120G A145G C150G C169G, the reverse-splicing fitness was 0.0068. The figure for C82U A111C A120G A145G C150G C169A is 0.0087; for C82U A111C A120G A145C C150U it is 0.00818; for C82U A111C A120G A145U U176A it is 0.0148. With C82U A111C A120G A145U U176C, the reverse-splicing fitness is 0.0192. The value for C82U A111C A120G A145U U176G was 0.00452.

For C82U A111C A120G A145C C169A U176C, the reverse-splicing fitness is 0.00533.

Turning to C82U A111C A120G A145C C169A U176G, the reverse-splicing fitness turned out to be 0.00336. The figure for C82U A111C A120G A145C C169A U176A is 0.00788; for C82U A111C A120G A145U C150A C169A U176C it is 0.00775. In the case of C82U A111C A120G A145U C150A C169A U176G, the reverse-splicing fitness is 0.00481. The figure for C82U A111C A120G A145U C150A C169A U176A is 0.0102; for C82U A111C A120G A145G C150G C169G U176A it is 0.00921. As to C82U A111C A120G A145G C150G C169G U176C, the reverse-splicing fitness worked out at 0.0114.

With C82U A111C A120G A145G C150G C169G U176G, the reverse-splicing fitness turned out to be 0.00526. The value for C82U A111C A120G A145U C150G U176A was 0.00768. C82U A111C A120G A145U C150G U176G: the reverse-splicing fitness came to 0.00282.

On to C82U A111C A120G A145U C150G U176C, for which the reverse-splicing fitness is 0.0141. The value for C82U A111C A120G A145G C150A C169U was 0.00786; that for C82U A111C A120G A145G C150A C169G was 0.00809; that for C82U A111C A120G A145G C150A C169A was 0.00989. The figure for C82U A111C A120G A145G C150G is 0.00776.

As to C82U A111C A120G A145G C150U, the reverse-splicing fitness stood at 0.0115. Turning to C82U A111C A120G A145G C150A, the reverse-splicing fitness was found to be 0.00814.

With C82U A111C A120G A145U C150U C169G U176C, the reverse-splicing fitness stood at 0.0111.

Consider C82U A111C A120G A145U C150U C169G U176G, for which the reverse-splicing fitness is 0.00453. The value for C82U A111C A120G A145U C150U C169G U176A was 0.00992.

For C82U A111C A120G A145U C150G C169G U176A, the reverse-splicing fitness is 0.0063. The figure for C82U A111C A120G A145U C150G C169G U176G is 0.00386. The figure for C82U A111C A120G A145U C150G C169G U176C is 0.00446; for C82U A111C A120G A145G C150U C169U it is 0.00958. In the case of C82U A111C A120G A145G C150U C169G, the reverse-splicing fitness is 0.00984. The figure for C82U A111C A120G A145G C150U C169A is 0.0103. The figure for C82U A111C A120G A145C C150U C169G U176A is 0.0181; for C82U A111C A120G A145C C150U C169G U176G it is 0.00492. The figure for C82U A111C A120G A145C C150U C169G U176C is 0.0105.
